# Source: patent US20200325212A1 (CITY OF HOPE, published 2020)
# B1: mLCN2-Fc (bivalent m-Lcn2 fused to human IgG1 Fc) (Fc fusion)
# chain: QDSTSDLIPAPPLSKVPLQQNFQDNQFHGKWYVVGLAGNRILRDDQHPMNMYATIYELKEDKSYNVTSVISSHKKCEYTIATFVPGSQPGEFTLGNIKSYGDKTSYLVRVVSTDYNQYAVVFFKLAEDNAEFFAITIYGRTKELASELKENFIRFSKSLGLPENHIVFPVPIDQCIDG
# notes: m-Lcn2 cDNA was subcloned N-terminal to a linker-Fc domain and expressed in insect cells; also called bivalent m-Lcn2-Fc; unmasked m-Lcn2-Fc; not shown: linker between m-Lcn2 and Fc; human IgG1 Fc fragment
# B2: modified lipocalin2 (mLcn2), monovalent (designed binder)
# chain: B1 chain
# notes: Re-engineered human lipocalin 2 used as a CTLA-4 antagonist; also called monovalent mLCN2; monomeric mLCN2
# Assays:
# [1] = molecular target: murine CTLA4 on murine T-cells (C57BL/6 splenocytes) (mouse, UniProt P09793 36-223); assay: cell-based or functional assay
# [2] = molecular target: T1, CTLA4-Fc MMP9 (MMP9-cleavable CTLA4-Fc mask; CTLA4-Fc_WT) (human); assay: SPR, CTLA-4-MMP9-Fc coupled to the sensor chip and titrated with m-Lcn2-Fc; no dissociation observed
# T1 construct: It was expressed in insect cells; also called CTLA-4-MMP9-Fc; CTLA4-MMP9-Fc
# From the text: To verify that the m-Lcn2-Fc and CTLA-4-Fc form a 1:1 complex, we used analytical size exclusion chromatography (SEC) (FIG. 3 panel A). A definitive shift to earlier elution volumes was observed, consistent with a molecular mass of 200 kD, as expected. To verify an increase in the apparent affinity due to the energy additivity of bivalent-bivalent interaction, the mask, CTLA-4-MMP9-Fc, was coupled to a CMS sensor chip and titrated with the bivalent m-Lcn2-Fc. A substantial increase in affinity was observed. In fact, no dissociation was observed and thus no calculation could be completed for an apparent dissociation constant (FIG. 3 panel B). […] In an attempt to establish the off-rate, a competition assay was carried out. Specifically, the 1:1 m-Lcn2-Fc|CTLA-4-MMP9-Fc complex was isolated and incubated with 10 fold excess of Alexafluor-labeled CTLA-4-MMP9-Fc. The exchange by size exclusion chromatography was followed by monitoring at […]. After two weeks, less than 5% exchange was observed.
# Surface Plasmon Resonance (SPR). SPR experiments were performed on a GE Biacore T100 instrument at 25° C. Ligands were amine coupled to CMS chips at 300 Rmax. Blank lanes were used as baseline control. Analyte titrations were prepared as serial dilutions in HBS-EP⁺ running buffer (10 mM Hepes pH 7.4, 150 mM NaCl, 3 mM EDTA, 0.05% v/v P20). […]
# [3] = molecular target: T2, CTLA-4-Fc (purchased from R&D systems) (human, UniProt P16410 37-162); assay: calculated from the koff of the monovalent m-Lcn2 : CTLA-4 interaction
# T2 construct: Bought reagent; also called human CTLA4; not shown: Fc part and linker of the commercial product are not described
# T2 sequence (looked up): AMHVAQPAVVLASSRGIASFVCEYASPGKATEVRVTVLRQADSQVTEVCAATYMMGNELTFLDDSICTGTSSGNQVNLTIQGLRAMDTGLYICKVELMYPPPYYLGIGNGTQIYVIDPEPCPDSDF
# [4] = molecular target: T1, CTLA4-Fc MMP9 (MMP9-cleavable CTLA4-Fc …); assay: calculated from SPR kd, t1/2 = ln(2)/kd
# Method: (§1) Surface Plasmon Resonance (SPR). SPR experiments were performed on a GE Biacore T100 instrument at 25° C. Ligands were amine coupled to CMS chips at 300 Rmax. Blank lanes were used as baseline control. Analyte titrations were prepared as serial dilutions in HBS-EP⁺ running buffer (10 mM Hepes pH 7.4, 150 mM NaCl, 3 mM EDTA, 0.05% v/v P20). Increasing concentrations of analytes were flowed over blank and ligand lanes at 50 μL/min. Regeneration buffer (1 M NaCl, 10 mM glycine pH 2.6) was flowed at 90 μL/min for 10 s. Data analyses were performed using Biacore T100 Evaluation Software, version 1.1.1 (GE Healthcare). Response reported as the difference between blank and peptide lanes.
# (§2) TABLE 3 Kinetics of CTLA4-Fc mask variants, as measured by SPR. Binding kinetics of mLCN2 for each CTLA4-Fc variant was measured by SPR. Half-life time was calculated from equation: t_{1/2} = ln (2)/kd.
# [5] = molecular target: T3, CTLA4-Fc variant E31S R33E T51H (human); assay: calculated from SPR kd, t1/2 = ln(2)/kd
# T3 construct: Whole fusion (CTLA4 extracellular domain, MMP9 linker, IgG1 Fc) with E31S, R33E and T51H; also called E31S, R33E, T51H CTLA-4
# Method: as §1, §2
# [6] = molecular target: T4, CTLA4-Fc variant E31A R33A (human); assay: calculated from SPR kd, t1/2 = ln(2)/kd
# T4 construct: Whole fusion (CTLA4 extracellular domain, MMP9 linker, IgG1 Fc) with E31A and R33A; also called E31A and R33A CTLA-4
# Method: as §1, §2
# CTLA4-Fc variant T51H [7] = molecular target: T5, CTLA4-Fc variant T51H (human); assay: calculated from SPR kd, t1/2 = ln(2)/kd
# T5 construct: Whole fusion (CTLA4 extracellular domain, MMP9 linker, IgG1 Fc) with T51H; also called T51H CTLA-4
# Method: as §1, §2
# CTLA4-Fc variant Y52F [8] = molecular target: CTLA4-Fc variant Y52F (human); assay: calculated from SPR kd, t1/2 = ln(2)/kd
# Method: as §1, §2
# [9] = molecular target: T1, CTLA4-Fc MMP9 (MMP9-cleavable CTLA4-Fc …); assay: SPR (Biacore T100), mLCN2 on CTLA4-Fc variant
# Method: as §1, §2
# [10] = molecular target: T3, CTLA4-Fc variant E31S R33E T51H; assay: SPR (Biacore T100), mLCN2 on CTLA4-Fc variant
# Method: as §1, §2
# [11] = molecular target: T4, CTLA4-Fc variant E31A R33A; assay: SPR (Biacore T100), mLCN2 on CTLA4-Fc variant
# Method: as §1, §2
# CTLA4-Fc variant T51H [12] = molecular target: T5, CTLA4-Fc variant T51H; assay: SPR (Biacore T100), mLCN2 on CTLA4-Fc variant
# Method: as §1, §2
# CTLA4-Fc variant Y52F [13] = molecular target: CTLA4-Fc variant Y52F (human); assay: SPR (Biacore T100), mLCN2 on CTLA4-Fc variant
# Method: as §1, §2
# [14] = molecular target: T2, CTLA-4-Fc (purchased from R&D systems); assay: SPR presumed; method not given; monovalent m-Lcn2 to CTLA-4
# T5 sequence (chain, as listed by the source T51H T51H limits assumed): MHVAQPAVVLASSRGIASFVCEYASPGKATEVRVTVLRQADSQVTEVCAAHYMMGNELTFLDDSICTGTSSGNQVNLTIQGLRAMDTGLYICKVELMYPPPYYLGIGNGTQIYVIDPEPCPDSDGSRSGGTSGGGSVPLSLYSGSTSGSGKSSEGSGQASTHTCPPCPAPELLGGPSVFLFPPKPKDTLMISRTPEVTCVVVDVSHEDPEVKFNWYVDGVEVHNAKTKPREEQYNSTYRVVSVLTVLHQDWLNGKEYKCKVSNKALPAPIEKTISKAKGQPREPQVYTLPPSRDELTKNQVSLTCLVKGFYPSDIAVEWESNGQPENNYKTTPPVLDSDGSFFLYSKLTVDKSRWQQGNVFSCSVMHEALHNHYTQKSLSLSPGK
# Sequence of CTLA4-Fc variant Y52F (human) (chain, as listed by the source Y52F Y52F limits assumed): as the sequence (chain, as listed by the source T51H T51H limits assumed) above, with H51T, Y52F counted along it
# T1 sequence (chain, as listed by the source limits assumed): as the sequence (chain, as listed by the source T51H T51H limits assumed) above, with H51T counted along it
# T4 sequence (chain, as listed by the source E31A R33A E31A R33A limits assumed): as the sequence (chain, as listed by the source T51H T51H limits assumed) above, with E31A, R33A, H51T counted along it
# T3 sequence (chain, as listed by the source E31S R33E T51H E31S R33E T51H limits assumed): as the sequence (chain, as listed by the source T51H T51H limits assumed) above, with E31S, R33E counted along it
binder,measurement,setting,value
B1,induction of IFN-γ production (Elispot),[1],10 fold
same,Kd,[2],≤ 0.2 nM
B2,"t1/2 (dissociation half-life, 0.693/KOFF)",[3],22 min
same,Calculated t1/2,[4],57.8 min
same,Calculated t1/2,[5],0.467 min
same,Calculated t1/2,[6],11.6 min
same,Calculated t1/2,CTLA4-Fc variant T51H [7],52.5 min
same,Calculated t1/2,CTLA4-Fc variant Y52F [8],53.7 min
same,Kd,[9],5.52 nM
same,koff,[9],0.000201 s⁻¹
same,kon,[9],36400 M⁻¹ s⁻¹
same,Kd,[10],5600 nM
same,koff,[10],0.025 s⁻¹
same,kon,[10],4430 M⁻¹ s⁻¹
same,Kd,[11],100 nM
same,koff,[11],0.0011 s⁻¹
same,kon,[11],11000 M⁻¹ s⁻¹
same,Kd,CTLA4-Fc variant T51H [12],9.07 nM
same,koff,CTLA4-Fc variant T51H [12],0.00022 s⁻¹
same,kon,CTLA4-Fc variant T51H [12],24200 M⁻¹ s⁻¹
same,Kd,CTLA4-Fc variant Y52F [13],6.14 nM
same,koff,CTLA4-Fc variant Y52F [13],0.000215 s⁻¹
same,kon,CTLA4-Fc variant Y52F [13],35100 M⁻¹ s⁻¹
same,koff,[14],0.00051 s⁻¹
